Test results taken from PMC11388340, “HIRA complex deposition of histone H3.3 is driven by histone tetramerization and histone-DNA binding”.

Experiments:
HIRA-WB;UBN1-NM;H3.3/H4 = HIRA-WB;UBN1-NM;H3.3/H4 (human;human;Homo sapiens (H3.3); …, UniProt P54198;Q9NPG3;P84243;P62799 1-473;1-584;2-136;2-103, ||); assay: fluorescence polarization; 20 mM HEPES pH 7.5, 150 mM NaCl, 0.5 mM TCEP, 0.001% Tween-20, 1 mg/ml BSA; 10 nM probe; temperature not stated
H3.3/H4 = H3.3/H4 (Homo sapiens (H3.3); Xenopus laevis (H4), UniProt P84243;P62799 2-136;2-103); assay: as above
HIRA-WB;UBN1-NM = HIRA-WB;UBN1-NM (human;human, UniProt P54198;Q9NPG3 1-473;1-584, |); assay: fluorescence polarization; no histones; 20 mM HEPES pH 7.5, 150 mM NaCl, 0.5 mM TCEP, 0.001% Tween-20, 1 mg/ml BSA; 10 nM probe; temperature not stated; details: protein: recombinant;recombinant; tags: N-terminal His;; copies: 1;1; label: 5'-FAM on sense strand; blunt
HIRA-WB;UBN1-NM;ASF1a-C = HIRA-WB;UBN1-NM;ASF1a-C (human;human;human?, UniProt P54198;Q9NPG3;Q9Y294 1-473;1-584;1-156, ||); assay: as above; details: protein: recombinant;recombinant;recombinant; tags: N-terminal His;;GST cleaved with precision protease; copies: 1;1;1; label: 5'-FAM on sense strand; blunt

B1: 10x ATGC 40-mer dsDNA (dsDNA)
DNA 1: ATGCATGCATGCATGCATGCATGCATGCATGCATGCATGC
DNA 2: GCATGCATGCATGCATGCATGCATGCATGCATGCATGCAT
Kd (HIRA-WB;UBN1-NM;H3.3/H4): 40 nM | Kd (H3.3/H4): 240 nM | Kd (HIRA-WB;UBN1-NM): 370 nM | Kd (HIRA-WB;UBN1-NM;ASF1a-C): 970 nM
